In this data set the target is LRP6 (recombinant human LRP-6, Fc chimera) (Homo sapiens, UniProt O75581 20-1370). Briefly: SPR; CE-LIF: incubation pH 8.0, 0.155% glutathione, 0.395% Tris-HCl; running buffer 50 mM borate pH 7.6, 20 kV, 25 C (CE-SELEX conditions). SPR: PBST pH 7.4, 0.05% Tween-20, 25 C, protein amine-coupled on CM5. AuNP: room temperature, then 0.9 M NaCl. The conditions noted are these: protein: commercial; tags: Fc chimera; chain copies: 2.
LRP6 (recombinant human LRP-6, Fc chimera), sequence (O75581 20-1370, change not shown): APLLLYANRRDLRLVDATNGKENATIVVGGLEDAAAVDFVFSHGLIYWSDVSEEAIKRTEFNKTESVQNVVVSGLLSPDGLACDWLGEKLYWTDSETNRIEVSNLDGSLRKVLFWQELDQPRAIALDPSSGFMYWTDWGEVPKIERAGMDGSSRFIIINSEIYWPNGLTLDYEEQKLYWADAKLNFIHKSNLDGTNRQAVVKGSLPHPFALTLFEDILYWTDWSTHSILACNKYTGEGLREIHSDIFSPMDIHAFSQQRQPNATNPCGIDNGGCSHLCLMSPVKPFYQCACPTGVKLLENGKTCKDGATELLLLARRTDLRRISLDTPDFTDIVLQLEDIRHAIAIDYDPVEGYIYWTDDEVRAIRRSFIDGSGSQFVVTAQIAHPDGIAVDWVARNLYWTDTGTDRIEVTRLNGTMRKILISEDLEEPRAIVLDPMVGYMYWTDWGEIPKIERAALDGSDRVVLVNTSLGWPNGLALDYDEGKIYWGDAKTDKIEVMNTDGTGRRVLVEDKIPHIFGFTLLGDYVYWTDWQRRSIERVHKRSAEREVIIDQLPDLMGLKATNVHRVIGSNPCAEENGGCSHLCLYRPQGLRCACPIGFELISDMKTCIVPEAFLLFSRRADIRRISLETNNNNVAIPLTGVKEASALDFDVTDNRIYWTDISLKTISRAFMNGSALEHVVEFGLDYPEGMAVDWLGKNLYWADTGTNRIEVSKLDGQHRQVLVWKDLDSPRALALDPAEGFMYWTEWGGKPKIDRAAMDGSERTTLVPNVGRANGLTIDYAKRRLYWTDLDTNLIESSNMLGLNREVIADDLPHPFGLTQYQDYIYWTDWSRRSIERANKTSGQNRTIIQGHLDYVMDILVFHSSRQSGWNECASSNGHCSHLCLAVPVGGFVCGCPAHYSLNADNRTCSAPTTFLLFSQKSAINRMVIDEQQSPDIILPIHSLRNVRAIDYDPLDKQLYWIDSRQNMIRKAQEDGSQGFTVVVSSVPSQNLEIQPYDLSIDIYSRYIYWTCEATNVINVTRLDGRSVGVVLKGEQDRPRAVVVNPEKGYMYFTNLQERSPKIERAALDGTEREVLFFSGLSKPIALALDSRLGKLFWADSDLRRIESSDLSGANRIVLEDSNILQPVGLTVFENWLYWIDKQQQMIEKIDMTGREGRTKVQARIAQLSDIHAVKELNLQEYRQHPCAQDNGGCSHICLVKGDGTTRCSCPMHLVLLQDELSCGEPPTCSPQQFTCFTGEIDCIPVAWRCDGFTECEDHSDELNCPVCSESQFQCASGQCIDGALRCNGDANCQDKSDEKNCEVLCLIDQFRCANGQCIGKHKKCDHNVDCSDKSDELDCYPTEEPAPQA

B1: MutLRP6-A3 (ssDNA)
DNA: AGCAGCACAGAGGTTATTTGGCAGCTAAGCAGGCGGCTCACAAAACCATTCGCATGCGGCCCTATGCGTGCTTTTGTGAA
For B1, the Kd stood at 2680 nM.

B2: MutLRP6-A2 (ssDNA)
DNA: AGCAGCACTTAGGTCAGATGGCCACATTAGTCTCACCACTACCTTTTTTCCTACCGCCGCCCTATGCGTGCTACCGTGAA
On to B2, for which the binding result is reported as “no binding”.
